Literature values as cited in article PMC11612555, “Impact of camel milk lactoferrin peptides against breast cancer cells: in silico and in vitro study” (Frontiers in Pharmacology, 2024).

B1: bovine lactoferrin (protein, UniProt P24627 20-708, looked up)
Lactotransferrin: APRKNVRWCTISQPEWFKCRRWQWRMKKLGAPSITCVRRAFALECIRAIAEKKADAVTLDGGMVFEAGRDPYKLRPVAAEIYGTKESPQTHYYAVAVVKKGSNFQLDQLQGRKSCHTGLGRSAGWIIPMGILRPYLSWTESLEPLQGAVAKFFSASCVPCIDRQAYPNLCQLCKGEGENQCACSSREPYFGYSGAFKCLQDGAGDVAFVKETTVFENLPEKADRDQYELLCLNNSRAPVDAFKECHLAQVPSHAVVARSVDGKEDLIWKLLSKAQEKFGKNKSRSFQLFGSPPGQRDLLFKDSALGFLRIPSKVDSALYLGSRYLTTLKNLRETAEEVKARYTRVVWCAVGPEEQKKCQQWSQQSGQNVTCATASTTDDCIVLVLKGEADALNLDGGYIYTAGKCGLVPVLAENRKSSKHSSLDCVLRPTEGYLAVAVVKKANEGLTWNSLKDKKSCHTAVDRTAGWNIPMGLIVNQTGSCAFDEFFSQSCAPGADPKSRLCALCAGDDQGLDKCVPNSKEKYYGYTGAFRCLAEDVGDVAFVKNDTVWENTNGESTADWAKNLNREDFRLLCLDGTRKPVTEAQSCHLAVAPNHAVVSRSDRAAHVKQVLLHQQALFGKNGKNCPDKFCLFKSETKNLLFNDNTECLAKLGGRPTYEEYLGTEYVTAIANLKKCSTSPLLEACAFLTR
notes: lactoferrin from bovine milk
B2: lactoferrin (protein, UniProt P02788 20-710, looked up)
Lactotransferrin: GRRRSVQWCAVSQPEATKCFQWQRNMRKVRGPPVSCIKRDSPIQCIQAIAENRADAVTLDGGFIYEAGLAPYKLRPVAAEVYGTERQPRTHYYAVAVVKKGGSFQLNELQGLKSCHTGLRRTAGWNVPIGTLRPFLNWTGPPEPIEAAVARFFSASCVPGADKGQFPNLCRLCAGTGENKCAFSSQEPYFSYSGAFKCLRDGAGDVAFIRESTVFEDLSDEAERDEYELLCPDNTRKPVDKFKDCHLARVPSHAVVARSVNGKEDAIWNLLRQAQEKFGKDKSPKFQLFGSPSGQKDLLFKDSAIGFSRVPPRIDSGLYLGSGYFTAIQNLRKSEEEVAARRARVVWCAVGEQELRKCNQWSGLSEGSVTCSSASTTEDCIALVLKGEADAMSLDGGYVYTAGKCGLVPVLAENYKSQQSSDPDPNCVDRPVEGYLAVAVVRRSDTSLTWNSVKGKKSCHTAVDRTAGWNIPMGLLFNQTGSCKFDEYFSQSCAPGSDPRSNLCALCIGDEQGENKCVPNSNERYYGYTGAFRCLAENAGDVAFVKDVTVLQNTDGNNNEAWAKDLKLADFALLCLDGKRKPVTEARSCHLAMAPNHAVVSRMDKVERLKQVLLHQQAKFGRNGSDCPDKFCLFQSETKNLLFNDNTECLARLHGKTTYEKYLGPQYVAGITNLKKCSTSPLLEACEFLRK

How the values were obtained:
[1] = tested on: MCF-10-2A; parameters: method as in Zhang et al., 2014; details: normal breast cell line MCF-10-2A; ref Zhang et al., 2014
[2] = tested on: MCF-7; parameters: method as in Zhang et al., 2014; details: ref Zhang et al., 2014
[3] = tested on: Hs578T; parameters: method as in Zhang et al., 2014; details: ref Zhang et al., 2014
[4] = tested on: T-47D; parameters: method as in Zhang et al., 2014; details: ref Zhang et al., 2014
[5] = tested on: MDA-MB-231; parameters: method as in Zhang et al., 2014; details: ref Zhang et al., 2014
[6] = tested on: MDAmb231 cells; parameters: method as in Rascón-Cruz et al., 2021b; details: against MDAmb231; ref Rascón-Cruz et al., 2021b
[7] = tested on: HeLa cells; parameters: method as in Rascón-Cruz et al., 2021b; details: against HeLa; ref Rascón-Cruz et al., 2021b

Molecule	proliferation [1]	proliferation [2]	proliferation [3]	proliferation [4]	proliferation [5]	selective index [6]	selective index [7]
B1	not	inhibited	inhibited	inhibited	inhibited		
B2						11.68	9.59
